From publication PMC5975642 (2018)

What was measured:
MC4R [1] = target: T1, MC4R (Homo sapiens, UniProt P32245); test: cell competition binding against biotinylated alpha-MSH
MC4R [2] = target: T1, MC4R; test: cell saturation binding

T1 sequence (P32245 whole entry): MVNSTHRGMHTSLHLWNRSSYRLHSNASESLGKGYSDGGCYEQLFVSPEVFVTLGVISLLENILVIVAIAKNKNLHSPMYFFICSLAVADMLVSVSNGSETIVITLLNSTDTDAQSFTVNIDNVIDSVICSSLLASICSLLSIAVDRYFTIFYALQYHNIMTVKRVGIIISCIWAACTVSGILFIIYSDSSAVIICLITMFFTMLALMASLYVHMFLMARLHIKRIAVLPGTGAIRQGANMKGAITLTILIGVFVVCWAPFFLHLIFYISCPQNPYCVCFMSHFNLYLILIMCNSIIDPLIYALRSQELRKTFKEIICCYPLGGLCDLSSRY

B1: LCN2 (protein)
chain: QDSTQNLIPAPSLLTVPLQPDFRSDQFRGRWYVVGLAGNAVQKKTEGSFTMYSTIYELQENNSYNVTSILVRDQDQGCRYWIRTFVPSSRAGQFTLGNMHRYPQVQSYNVQVATTDYNQFAMVFFRKTSENKQYFKITLYGRTKELSPELKERFTRFAKSLGLKDDNIIFSVPTDQCIDN
Binder B1 has a Ki (MC4R [1]) of 46.3 nM.

B2: LCN2 (protein)
chain: QDSTQNLIPAPSLLTVPLQPDFRSDQFRGRWYVVGLAGNAVQKKTEGSFTMYSTIYELQENNSYNVTSILVRDQDQGCRYWIRTFVPSSRAGQFTLGNMHRYPQVQSYNVQVATTDYNQFAMVFFRKTSENKQYFKITLYGRTKELSPELKERFTRFAKSLGLKDDNIIFSVPTDQCIDN
modifications: biotinylated LCN2
Binder B2 has a Kd (MC4R [2]) of 51.4 nM.
